B1: Arabidopsis thaliana cryptochrome 2 (CRY2, UniProt Q96524), residues 1-535 fused after the Gal4 DNA-binding domain (Gal4BD-CRY2(535)); mutagenized window 321-412, Q96524 (parent)
chain: MKMDKKTIVWFRRDLRIEDNPALAAAAHEGSVFPVFIWCPEEEGQFYPGRASRWWMKQSLAHLSQSLKALGSDLTLIKTHNTISAILDCIRVTGATKVVFNHLYDPVSLVRDHTVKEKLVERGISVQSYNGDLLYEPWEIYCEKGKPFTSFNSYWKKCLDMSIESVMLPPPWRLMPITAAAEAIWACSIEELGLENEAEKPSNALLTRAWSPGWSNADKLLNEFIEKQLIDYAKNSKKVVGNSTSLLSPYLHFGEISVRHVFQCARMKQIIWARDKNSEGEESADLFLRGIGLREYSRYICFNFPFTHEQSLLSHLRFFPWDADVDKFKAWRQGRTGYPLVDAGMRELWATGWMHNRIRVIVSSFAVKFLLLPWKWGMKYFWDTLLDADLECDILGWQYISGSIPDGHELDRLDNPALQGAKYDPEGEYIRQWLPELARLPTEWIHHPWDAPLTVLKASGVELGTNYAKPIVDIDTARELLAKAISRTREAQIMIGAAPDEIVADSFEALGANTIKEPGLCPSVSSNDQQVPSAV

Variants of: B1
Assay: yeast two-hybrid growth selection (MaV203; Gal4BD-CRY2(1-535) library x Gal4AD-CIB1; URA3 reporter on SC -Trp/-Leu/-Ura) in the dark, deep sequencing before and after selection, Enrich2 scoring; three independent screens (one at 48 h, two …)
Settings: with CIB1 (CRYPTOCHROME-INTERACTING BASIC-HELIX-LOOP-HELIX 1), dark (no blue light), screens 1, 3 and 4, Svar > 0 = enriched under dark selection for CRY2-CIB1 two-hybrid growth (URA3 reporter), < 0 = depleted, relative to wild type (whose scores are 0). 'The Enrich2 software calculates, parent: 0, not an affinity, scale: Enrich2 score, numbering: uniprot, sequence starts at 1
M378V was tested, and the enrichment was 0.308.
M378K gave an enrichment of 2.66.
With M378A the enrichment was 0.99.
M378R was tested, and the enrichment was 2.81.
M378T was tested, and the enrichment was 2.32.
For M378I, the enrichment was -0.703.
In the case of M378L, the enrichment is reported as -0.703.
D393E showed an enrichment of 1.18.
Work on D393N yielded an enrichment of 1.16.
D393S gave an enrichment of 2.65.
In the case of D393A, the enrichment is reported as 1.64.
D393V showed an enrichment of 0.508.
D393Y showed an enrichment of -0.612.
With D393G the enrichment was 2.3.
Variant F381Y has an enrichment of 0.399.
F381T showed an enrichment of 1.8.
In the case of F381S, the enrichment is reported as -1.2.
For F381I, the enrichment was -0.4.
Work on F381L yielded an enrichment of 1.1.
F381C showed an enrichment of 0.0158.
With F381V the enrichment was -0.0604.
With W397C the enrichment was -0.144.
With W397L the enrichment was -0.429.
In the case of W397S, the enrichment is reported as -1.08.
W397R showed an enrichment of -1.01.
With W397G the enrichment was -0.823.
Work on E391G yielded an enrichment of -1.1.
In the case of E391A, the enrichment is reported as -0.592.
With E391K the enrichment was -0.425.
In the case of E391D, the enrichment is reported as -0.531.
Variant E391Q has an enrichment of -0.786.
E391V gave an enrichment of -0.645.
K375T was tested, and the enrichment was -0.845.
In the case of K375V, the enrichment is reported as 1.44.
Work on D406H yielded an enrichment of -0.803.
Work on D406G yielded an enrichment of -0.172.
Work on D406V yielded an enrichment of 2.12.
D406N showed an enrichment of -0.7.
With D406E the enrichment was -0.152.
D406A gave an enrichment of -0.00151.
Variant D406Y has an enrichment of -0.496.
Y399C was tested, and the enrichment was 1.43.
Variant Y399F has an enrichment of 1.58.
Y399D showed an enrichment of 1.99.
Y399N gave an enrichment of 2.41.
For Y399S, the enrichment was 2.82.
For Y399H, the enrichment was 1.23.
Y399I gave an enrichment of 2.5.
For A388S, the enrichment was 0.429.
A388T gave an enrichment of -0.454.
A388V showed an enrichment of -0.153.
In the case of A388G, the enrichment is reported as -1.33.
Variant A388P has an enrichment of -0.944.
In the case of A388D, the enrichment is reported as -0.472.
For S401F, the enrichment was 2.4.
S401Y was tested, and the enrichment was 0.744.
With S401P the enrichment was -0.107.
S401A gave an enrichment of -0.239.
S401T gave an enrichment of 2.02.
For S401L, the enrichment was 2.46.
I404A was tested, and the enrichment was 1.16.
I404N was tested, and the enrichment was 1.51.
I404F showed an enrichment of 2.25.
I404V was tested, and the enrichment was -0.182.
For I404Y, the enrichment was 1.4.
I404T was tested, and the enrichment was -0.507.
I404S gave an enrichment of 1.61.
I394L showed an enrichment of 2.29.
Work on I394Y yielded an enrichment of 1.45.
In the case of I394N, the enrichment is reported as 2.39.
I394S gave an enrichment of 0.694.
I394V showed an enrichment of 0.326.
For I394F, the enrichment was 2.63.
Variant I394M has an enrichment of 1.08.
With I394T the enrichment was 0.588.
With I394A the enrichment was 1.15.
P405R was tested, and the enrichment was 1.02.
Variant P405H has an enrichment of 1.08.
With P405A the enrichment was 0.742.
Variant P405T has an enrichment of 0.224.
P405L showed an enrichment of 2.
In the case of L395H, the enrichment is reported as -0.769.
L395P gave an enrichment of -0.953.
L395Q gave an enrichment of 2.71.
L395F was tested, and the enrichment was 2.13.
L395R was tested, and the enrichment was -0.209.
Work on W376S yielded an enrichment of -1.68.
For W376L, the enrichment was 0.0656.
In the case of W376R, the enrichment is reported as -1.3.
W376G showed an enrichment of -0.7.
For W376C, the enrichment was -0.498.
For C392G, the enrichment was -0.321.
With C392R the enrichment was -1.14.
For C392F, the enrichment was -0.128.
C392S showed an enrichment of -0.465.
Work on C392W yielded an enrichment of -0.824.
C392Y was tested, and the enrichment was -1.08.
Variant K379T has an enrichment of 0.481.
For K379N, the enrichment was -0.188.
With K379R the enrichment was 0.0968.
K379A gave an enrichment of 1.5.
K379L gave an enrichment of 0.965.
Work on K379E yielded an enrichment of -0.743.
Variant K379M has an enrichment of -1.02.
K379Q gave an enrichment of -0.304.
In the case of L390F, the enrichment is reported as 1.66.
Variant L390W has an enrichment of 2.28.
L390S showed an enrichment of -1.09.
For L390V, the enrichment was 0.548.
With L390M the enrichment was -0.808.
With G407C the enrichment was 1.11.
G407D gave an enrichment of 1.47.
Variant G407V has an enrichment of 1.39.
With G407A the enrichment was -0.714.
In the case of G407S, the enrichment is reported as -0.771.
G407N was tested, and the enrichment was 2.77.
G407R showed an enrichment of -0.0452.
W382R showed an enrichment of -1.18.
With W382L the enrichment was -0.17.
For W382C, the enrichment was -0.025.
Work on W382G yielded an enrichment of 0.784.
Work on E409D yielded an enrichment of 0.454.
In the case of E409V, the enrichment is reported as 0.507.
Work on E409T yielded an enrichment of 0.84.
For E409K, the enrichment was -0.366.
In the case of E409G, the enrichment is reported as 0.152.
E409A gave an enrichment of -0.172.
L385F gave an enrichment of 2.61.
With L385I the enrichment was 2.28.
For L385P, the enrichment was -1.22.
L385R showed an enrichment of -0.336.
With L385V the enrichment was 2.7.
For L385H, the enrichment was 2.39.
In the case of G402V, the enrichment is reported as -0.0472.
Variant G402E has an enrichment of 0.772.
For G402R, the enrichment was 1.69.
With G402W the enrichment was -0.485.
For G402K, the enrichment was 2.35.
G377V was tested, and the enrichment was -0.508.
G377R was tested, and the enrichment was -1.08.
G377E was tested, and the enrichment was -0.85.
D411E was tested, and the enrichment was 1.55.
With L410R the enrichment was 1.71.
Work on Y380N yielded an enrichment of -1.37.
With Y380S the enrichment was -0.827.
Y380D was tested, and the enrichment was -0.763.
With Y380H the enrichment was -0.297.
Y380C showed an enrichment of -0.0376.
Y380F showed an enrichment of 1.2.
D383G gave an enrichment of -0.813.
D383V was tested, and the enrichment was -0.206.
In the case of D383N, the enrichment is reported as -0.384.
In the case of D383E, the enrichment is reported as -0.349.
For D383Y, the enrichment was -0.379.
D383A showed an enrichment of -0.952.
Variant S403G has an enrichment of -0.408.
With S403R the enrichment was 2.21.
With S403I the enrichment was 2.54.
S403N gave an enrichment of 0.435.
S403C gave an enrichment of 0.314.
T384I gave an enrichment of -0.949.
In the case of T384K, the enrichment is reported as -0.721.
T384S showed an enrichment of 0.274.
T384A gave an enrichment of 0.177.
T384P showed an enrichment of -1.14.
Work on D387N yielded an enrichment of -0.788.
D387A was tested, and the enrichment was -0.921.
D387E gave an enrichment of -1.15.
For D387V, the enrichment was -0.792.
With D387G the enrichment was -1.18.
D387H showed an enrichment of -0.974.
D387Y showed an enrichment of -0.867.
D389A showed an enrichment of -0.573.
Variant D389V has an enrichment of -0.759.
D389Y gave an enrichment of -0.572.
With D389E the enrichment was -0.54.
D389G showed an enrichment of -1.23.
With D389N the enrichment was -0.535.
Q398P gave an enrichment of -0.641.
Variant Q398L has an enrichment of 1.96.
For Q398W, the enrichment was 1.99.
Q398H showed an enrichment of 1.96.
Variant Q398E has an enrichment of 1.41.
Variant Q398R has an enrichment of 2.52.
Q398K gave an enrichment of 2.11.
In the case of G396D, the enrichment is reported as 0.65.
G396A was tested, and the enrichment was -1.05.
G396R gave an enrichment of 2.19.
With G396S the enrichment was -1.1.
In the case of G396V, the enrichment is reported as 0.898.
I400S was tested, and the enrichment was -0.343.
In the case of I400V, the enrichment is reported as -0.353.
I400Y gave an enrichment of 1.86.
With I400N the enrichment was -0.48.
Variant I400F has an enrichment of 1.95.
I400M gave an enrichment of 0.868.
I400L was tested, and the enrichment was -0.846.
In the case of I400T, the enrichment is reported as -0.933.
Variant L386V has an enrichment of 0.483.
Work on L386S yielded an enrichment of -0.716.
L386M gave an enrichment of 0.0161.
For L386W, the enrichment was -0.68.
L386F was tested, and the enrichment was -0.324.
H408R was tested, and the enrichment was 2.75.
H408L gave an enrichment of 1.61.
For H408Y, the enrichment was -0.432.
H408P gave an enrichment of 1.5.

Source: paper PMC12212125, “Constitutively active Arabidopsis cryptochrome two alleles identified using yeast selection and deep mutational scanning” (The Journal of Biological Chemistry, 2025)
